The values below come from patent US20060233704A1, “Prochelator for the preparation of radiometal labeled molecules having improved biological properties” (priority 2000, published 2006).

SMILES strings stand for the structures.

The format of the series is physicochemical. As to the method: In addition, the stability is higher. The reaction of ^90Y-DOTATOC or ^90Y-DOTAGA at 37° C. with the chelator DTPA results in ^90Y-DTPA.

As a reminder, the half-life is the time in which the quantity being followed falls by half. In the case of `C[C@@H](O)[C@@H]1NC(=O)[C@H](CCCCN)NC(=O)[C@@H](Cc2c[nH]c3ccccc23)NC(=O)[C@H](Cc2ccc(O)cc2)NC(=O)[C@@H](NC(=O)[C@@H](Cc2ccccc2)NC(=O)CCC(C(=O)O)N2CCN(CC(=O)O)CCN(CC(=O)O)CCN(CC(=O)O)CC2)CSSC[C@@H](C(=O)N[C@H](CO)[C@@H](C)O)NC1=O` (single isomer, unassigned) [DOTAGA], the half-life is 79 h.
